The values that follow are results of earlier work, collected in publication PMC9598996.

One data set concerns the target Cys67 (UniProt position 567, ILIEICGHKAI). Particulars: native (folded) enzyme, cysteines reduced.
A further data set deals with Cys95 (UniProt position 595, LTQIGCTLNFP). As to conditions: native (folded) enzyme, cysteines reduced.

For “HIV-1 protease (retropepsin) (Human immunodeficiency virus type 1)”, the pKa result in the data set with Cys67 and in the data set with Cys95 was “about 6” throughout.
